Experimental data reported in paper PMC10830117 (Science Advances, 2024).

Target: T1, Glutathione synthetase (GSS), full-length wild type, recombinant (human, UniProt P48637 1-474)
T1 sequence (looked up): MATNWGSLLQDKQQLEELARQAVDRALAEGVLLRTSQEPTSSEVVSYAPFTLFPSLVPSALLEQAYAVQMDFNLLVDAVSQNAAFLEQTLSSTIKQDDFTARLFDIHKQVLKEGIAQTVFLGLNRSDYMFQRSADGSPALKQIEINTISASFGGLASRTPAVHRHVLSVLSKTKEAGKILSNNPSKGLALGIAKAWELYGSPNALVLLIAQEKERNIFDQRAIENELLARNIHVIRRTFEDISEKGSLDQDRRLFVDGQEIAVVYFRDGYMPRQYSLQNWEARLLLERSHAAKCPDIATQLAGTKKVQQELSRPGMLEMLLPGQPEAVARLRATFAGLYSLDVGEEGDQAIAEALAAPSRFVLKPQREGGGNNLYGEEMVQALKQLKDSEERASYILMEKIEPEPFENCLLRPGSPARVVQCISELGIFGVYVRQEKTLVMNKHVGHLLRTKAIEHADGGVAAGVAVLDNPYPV
Assay: SPR

Kd: 0.244 ± 0.002 µM
stoichiometry N: 1
B1: Human LMPTP-A (low-molecular weight protein tyrosine phosphatase, isoform A) (enzyme, UniProt P24666 1-158, looked up)
chain: MAEQATKSVLFVCLGNICRSPIAEAVFRKLVTDQNISENWRVDSAATSGYEIGNPPDYRGQSCMKRHGIPMSHVARQITKEDFATFDYILCMDESNLRDLNRKSNQVKTCKAKIELLGSYDPQKQLIIEDPYYGNDSDFETVYQQCVRCCRAFLEKAH
